Measured values: the RNAGym collection of RNA variant scans (doi:10.1073/pnas.2313332121)

B1: TPR t1 (parent)
chain: GACCAAUCUGCCCUCAGAGCUCGAGAACAUCUUCGGAUGCAGAGGAGGCAGGCUUCGGUGGCGCGAUAGCGCCAACGUCCUCAACCUCCAAUGCAUCCCACCACAUGAUGAUGCCUGAAGAGCCUUGGUUUUUUG

Variants of: B1
Test: polymerase ribozyme fitness, log enrichment relative to wild type (log ratio); higher = more active; in vitro selection for triplet polymerase activity
How it was run: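 A heterodimeric triplet polymerase ribozyme had each of its subunits mutagenized by PCR into a library, which was transcribed. One round of in vitro selection, done in triplicate, annealed each library with a biotinylated primer, its partner subunit and triplets, then incubated it frozen at −7 °C before gel excision of extended constructs, streptavidin-bead capture and RT-PCR. Fitness is the logarithm of genotype enrichment relative to wild-type enrichment, based on Illumina sequencing of inputs and outputs and inverse-variance-weighted replicate averages. A base-2 logarithm is used, and genotypes were kept only with ≥10 input reads and ≥1 read per output.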

Variant | polymerase ribozyme fitness (log ratio)
G63U A111C | -1.67
C64A A83U | -7.05
G69A C88G C102U | -6.62
G69U A111U | -1.16
G69U C88G | -0.121
C64U A66G | -3.44
G69U G110A A118C | 0.45
A66C U130C | -0.918
G63U A121U | 0.749
G63U A121C | 0.0306
G63A G127U | -1.36
G63A A91G U129A | -3.01
G63C G120C U131A | 0.5
G63A C97U | -1.46
G63A C73G | -4.71
C64U C88G | -1.13
G63U C104A U133A | -3.31
G69U C104A U126A | -1.49
G69U C123U | 1.98
G63A A121U | 0.59
G63U C85A C88U C101G C115A C124A U129C | -2.52
U67A A74U C94G C101A G113C | -7.83
U67C C94A C123U | -6.04
G63C U126A G128U U133A | -3.25

Variant | polymerase ribozyme fitness (log ratio)
C64A C80G A103C U109G A118U | -5.65
C64U G128A | -1.84
C64U C115U | -0.234
G69C U81G | -5.01
G69U C72G C102U U125G | -1.81
G63U A91C U92G | -4.45
C64U A84C C94G | -1.23
G69C U106A C124A G128A | -1.94
G69U G93U G120A U125G U129G | -0.716
G63A U129G | -0.825
C64U C73U C82U | -0.57
A66C G113C G120U | -5.98
C64U A75U G93A | -0.503
C64A U92A C98U G110C C114A U133A | -6.59
G63C C76U U87G U116A G120A | -4.12
C64U U96C | -0.0442
A66U U125G | -1.48
G63A U81A | -2.01
G69A U81A C86G | -4.96
G69A U81A C82U A119G G122U U125A U129C | -5.05
G69U C70U C80U G113C A119G | -3.06
G63U G93A C124A | 0.423
G69U C70G U109A A111C | -5.41
G63A A83G U106A | -3.25

Variant | polymerase ribozyme fitness (log ratio)
C64A G117U | -6.44
C64A G117C | -6.03
G63U A90U G113C | -3.41
G63U U130C | -1.84
A68G G71A A95C | -6.02
C64U A83C A100C C101G U129G | -3.82
G69U C70G U92C G122A U125A | -3.32
C64U C76G | -3.51
G63U U106C | -1.92
C64A U112G | -6.64
A68U C115A G120C | -7.66
G63C U125G | -2.2
G63U U134G | -1.64
G69U C89U | -0.148
G65C C123G U133A | -4.9
G63A C82G G117U C123G | -3.95
G65U C124A | -4.07
G63A | -0.907
G63U | -1.18
G63C | -0.722
A66U U78C | -0.769
G69A G135U | -3.93
G69A C82U G120A G122U | -2.26
G69C C123G | 0.685

Variant | polymerase ribozyme fitness (log ratio)
G69C U130A | -1.59
G69U G120U | 1.02
G69A U81A | -3.16
G69C C104A C123G | -1.33
A66U U78C C123U | -0.156
G65A C79U | -3.57
A66C C85U C88A | -1.61
G69A G120U | -2.36
C64U C86A U129A | -1.99
G63U C104A | -2.5
G69C G113A | -1.72
G69A A84U | -3.06
G69U A84U C124U | 1.84
G69U C99U | -1.7
G63C C89U C102U A111C C115U | -6.78
A66U G77C C82U G128C | -4.12
G69C A75G | -2.54
A66C U112C A119C | -1.53
C64U C98U G120U | -0.972
G63U G122A | -2.28
C64A C86U C98U | -7.04
C64U C124U | 0.756
C64U G120A | 0.482
C64U G120U | 0.23

Variant | polymerase ribozyme fitness (log ratio)
G63A C114A | -1.9
A66U G71C | -3.02
G63U G93U C124G | -0.616
G69A U133A | -3.31
C64U U133A | -0.0271
C64U U133G | -0.439
C64G U106A | -5.51
C64A G120C | -3.88
G69A C73A | -2.75
A66U A105U | -4.44
A68G U112C | -0.794
G63A U112A C114G G122U | -1.75
G69C U78G C102U G110A | -6.81
C64G C124A | -4.25
G63A C79G | -3.65
G63A C79U | -1.07
G65U A66C | -4.3
G69U A103C U131C | -1.05
A68C C124A | -5.4
G63C U130A | -0.551
G69U C72G U78G U129C | -1.86
G63C A108U A121U G122A | -7.45
G69C C97G C101A G107A U112G U130G | -6.6
G69A U130A U133G | -2.25

Variant | polymerase ribozyme fitness (log ratio)
C64G C79G G120A G135C | -5.74
G63A U112G | -1.1
C64U A121C | 1.93
G63C A84U G117A | -2.46
G69C C124U | 0.177
G63U U112A G120A | -1.02
G69C C70A A91C | -7.25
G63U C89A | -2.53
C64U U112G C124G G135A | 1.56
G63C A90G G93U A118G | -1.31
A66G G128C | -3.65
U67C A105U | -4.9
A68U C124U | -5.86
G63U U96C | -1.31
G63C C101U C102U G120C | -2.17
G63U C94A A121C | -0.515
G65U C72A C88G C124A | -5.79
G63U C85U | -2.96
G69C C72A C94G | -5.12
G63C C124U | 0.611
C62U U112G C115A U126G | -2.54
G69A U78A G93A | -4.02
G63U G117U U129G | -6.2
G69C A100U | -1.67

Variant | polymerase ribozyme fitness (log ratio)
G69U C115A | 1
C64A C80G A83U C99U A103C U125A | -7.56
G69U C102U | -1.18
G69U C102A | -1.4
G69A A121U U126G | -2.09
C64U C86A | -1.42
A68G C114U | -5.48
C64A G113A | -6.92
A66U C76U U106C A119G U126C U130A | -2.47
A68U A111C | -7.12
A66C A84C C123U U133G | -0.245
C64U C98U | -0.89
A66C G117A A119U | -2.36
G63U C97U U112C A121C | 0.0312
G69A U96C | -3.08
A68G C88G A105C A111C | -4.63
G63A U116C G127U U133A | -5.28
C64U U92A | -3.06
C64G C114A | -6.24
G65C U87A | -5.6
C64A U112G G122A | -7.31
G65A C114G | -7.73
C64U U116A G120U | -1.79
